Data: patent US20180155450A1 (Sanofi, published 2018)

T1: recombinant human IL4 (human, UniProt P05112 25-153)
T1 construct: bought; also called Antigen1
T1 sequence (looked up): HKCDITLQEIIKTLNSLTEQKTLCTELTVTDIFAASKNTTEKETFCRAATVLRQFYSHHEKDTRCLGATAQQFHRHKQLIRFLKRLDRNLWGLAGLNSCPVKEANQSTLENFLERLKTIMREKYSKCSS

T2: recombinant human IL4 (human, UniProt P05112 25-153)
T2 sequence (looked up): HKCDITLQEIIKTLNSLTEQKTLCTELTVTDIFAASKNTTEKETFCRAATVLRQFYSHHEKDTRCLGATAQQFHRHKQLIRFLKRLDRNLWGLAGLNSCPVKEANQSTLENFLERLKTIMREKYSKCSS


Legend:
recombinant human IL4 [1] = target: T1, recombinant human IL4; test: SPR (Biacore 3000), captured CODV-Ig, antigen as analyte;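 further: kd derived from kinetic fits in BIAevaluation 4.1, with signals referenced against a flow cell lacking captured antibody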
Experimental: (§1) Kinetic binding analysis by Biacore was performed as follows. Surface plasmon resonance technology on a Biacore 3000 (GE Healthcare) was used for detailed kinetic characterization of purified antibodies. […] Chip surfaces were regenerated with 10 mM glycine pH 2.5. Kinetic parameters were analyzed and calculated in the BIAevaluation program package v4.1 using a flow cell without captured antibody as a reference.

recombinant human IL13 = target: T3, recombinant human IL13 (human, UniProt P35225 35-146, limits assumed); test: as above
T3 construct: bought; also called Antigen2
Experimental: as §1

recombinant human IL4 [2] = target: T2, recombinant human IL4; test: cell-based or functional assay
recombinant human IL4 [3] = target: T2, recombinant human IL4; test: SPR (Biacore 3000), antibody captured, antigen as analyte
Experimental: as §1

T3 sequence (P35225 35-146 limits assumed): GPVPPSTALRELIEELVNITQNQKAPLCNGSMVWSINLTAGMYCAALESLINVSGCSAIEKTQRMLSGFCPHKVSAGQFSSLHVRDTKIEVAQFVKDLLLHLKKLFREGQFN

Kd (recombinant human IL4 [1]) | Kd (recombinant human IL13) | IC50 Cellular Assay IL4 [nM] (HEK-Blue IL-4/IL-13 reporter cells, SEAP) (recombinant human IL4 [2]) | Kd (recombinant human IL4 [3]) | Binder
0.005 nM | 0.05 nM | – | – | CODV-Ig Batch ID 243 (IL4 × IL13 on HC; L1=3, L2=6, L3=6, L4=0) (bispecific antibody) chain 1: not shown chain 2: DIVLTQSPASLAVSLGQRATISCRASESVDSYGQSYMHWYQQKAGQPPKLLIYLASNLESGVPARFSGSGSRTDFTLTIDPVQAEDAATYYCQQNAEDSRTFGGGTKLEIKGGGDIQMTQSPASLSVSVGDTITLTCHASQNIDVWLSWFQQKPGNIPKLLIYKASNLHTGVPSRFSGSGSGTGFTLTISSLQPEDIATYYCQQAHSYPFTFGGGTKLEIKGGGGGGRTVAAPSVFIFPPSDEQLKSGTASVVCLLNNFYPREAKVQWKVDNALQSGNSQESVTEQDSKDSTYSLSSTLTLSKADYEKHKVYACEVTHQGLSSPVTKSFNRGEC
0.0081 nM | 0.101 nM | – | – | CODV-Ig Batch ID 237 (IL4 × IL13 on HC; L1=5, L2=3, L3=5, L4=2) (bispecific antibody) chain 1: not shown chain 2: DIVLTQSPASLAVSLGQRATISCRASESVDSYGQSYMHWYQQKAGQPPKLLIYLASNLESGVPARFSGSGSRTDFTLTIDPVQAEDAATYYCQQNAEDSRTFGGGTKLEIKGGGGGDIQMTQSPASLSVSVGDTITLTCHASQNIDVWLSWFQQKPGNIPKLLIYKASNLHTGVPSRFSGSGSGTGFTLTISSLQPEDIATYYCQQAHSYPFTFGGGTKLEIKGGGRTVAAPSVFIFPPSDEQLKSGTASVVCLLNNFYPREAKVQWKVDNALQSGNSQESVTEQDSKDSTYSLSSTLTLSKADYEKHKVYACEVTHQGLSSPVTKSFNRGEC
0.004 nM | 0.072 nM | – | – | CODV-Ig Batch ID 201 (IL4 × IL13 on HC; L1=5, L2=3, L3=1, L4=2) (bispecific antibody) chain 1: not shown chain 2: DIVLTQSPASLAVSLGQRATISCRASESVDSYGQSYMHWYQQKAGQPPKLLIYLASNLESGVPARFSGSGSRTDFTLTIDPVQAEDAATYYCQQNAEDSRTFGGGTKLEIKGGGGGDIQMTQSPASLSVSVGDTITLTCHASQNIDVWLSWFQQKPGNIPKLLIYKASNLHTGVPSRFSGSGSGTGFTLTISSLQPEDIATYYCQQAHSYPFTFGGGTKLEIKGGGRTVAAPSVFIFPPSDEQLKSGTASVVCLLNNFYPREAKVQWKVDNALQSGNSQESVTEQDSKDSTYSLSSTLTLSKADYEKHKVYACEVTHQGLSSPVTKSFNRGEC
0.004 nM | 0.065 nM | – | – | CODV-Ig Batch ID 240 (IL4 × IL13 on HC; L1=7, L2=5, L3=5, L4=2) (bispecific antibody) chain 1: not shown chain 2: DIVLTQSPASLAVSLGQRATISCRASESVDSYGQSYMHWYQQKAGQPPKLLIYLASNLESGVPARFSGSGSRTDFTLTIDPVQAEDAATYYCQQNAEDSRTFGGGTKLEIKGGGGGGGDIQMTQSPASLSVSVGDTITLTCHASQNIDVWLSWFQQKPGNIPKLLIYKASNLHTGVPSRFSGSGSGTGFTLTISSLQPEDIATYYCQQAHSYPFTFGGGTKLEIKGGGGGRTVAAPSVFIFPPSDEQLKSGTASVVCLLNNFYPREAKVQWKVDNALQSGNSQESVTEQDSKDSTYSLSSTLTLSKADYEKHKVYACEVTHQGLSSPVTKSFNRGEC
– | – | 0.045 nM | 0.007 nM | CODV-Ig Batch ID 506 (IL4 × IL13 on HC; L1 GQPKAAP, L2 TVAAP, L3 S, L4 TK) (bispecific antibody) heavy: not shown light: DIVLTQSPASLAVSLGQRATISCRASESVDSYGQSYMHWYQQKAGQPPKLLIYLASNLESGVPARFSGSGSRTDFTLTIDPVQAEDAATYYCQQNAEDSRTFGGGTKLEIKGQPKAAPDIQMTQSPASLSVSVGDTITLTCHASQNIDVWLSWFQQKPGNIPKLLIYKASNLHTGVPSRFSGSGSGTGFTLTISSLQPEDIATYYCQQAHSYPFTFGGGTKLEIKTVAAPRTVAAPSVFIFPPSDEQLKSGTASVVCLLNNFYPREAKVQWKVDNALQSGNSQESVTEQDSKDSTYSLSSTLTLSKADYEKHKVYACEVTHQGLSSPVTKSFNRGEC
– | – | 0.042 nM | 0.008 nM | CODV-Ig Batch ID 504 (IL4 × IL13 on HC; L1 RTVAAPS, L2 QPKAA, L3 S, L4 TK) (bispecific antibody) heavy: not shown light: DIVLTQSPASLAVSLGQRATISCRASESVDSYGQSYMHWYQQKAGQPPKLLIYLASNLESGVPARFSGSGSRTDFTLTIDPVQAEDAATYYCQQNAEDSRTFGGGTKLEIKRTVAAPSDIQMTQSPASLSVSVGDTITLTCHASQNIDVWLSWFQQKPGNIPKLLIYKASNLHTGVPSRFSGSGSGTGFTLTISSLQPEDIATYYCQQAHSYPFTFGGGTKLEIKQPKAARTVAAPSVFIFPPSDEQLKSGTASVVCLLNNFYPREAKVQWKVDNALQSGNSQESVTEQDSKDSTYSLSSTLTLSKADYEKHKVYACEVTHQGLSSPVTKSFNRGEC
– | – | 0.047 nM | 0.003 nM | CODV-Ig Batch ID 503 (IL4 × IL13 on HC; L1 ASTKGPS, L2 TVAAP, L3 S, L4 SS) (bispecific antibody) heavy: not shown light: DIVLTQSPASLAVSLGQRATISCRASESVDSYGQSYMHWYQQKAGQPPKLLIYLASNLESGVPARFSGSGSRTDFTLTIDPVQAEDAATYYCQQNAEDSRTFGGGTKLEIKASTKGPSDIQMTQSPASLSVSVGDTITLTCHASQNIDVWLSWFQQKPGNIPKLLIYKASNLHTGVPSRFSGSGSGTGFTLTISSLQPEDIATYYCQQAHSYPFTFGGGTKLEIKTVAAPRTVAAPSVFIFPPSDEQLKSGTASVVCLLNNFYPREAKVQWKVDNALQSGNSQESVTEQDSKDSTYSLSSTLTLSKADYEKHKVYACEVTHQGLSSPVTKSFNRGEC
– | – | 0.049 nM | 0.003 nM | CODV-Ig Batch ID 502 (IL4 × IL13 on HC; L1 ASTKGPS, L2 TVAAP, L3 S, L4 QP) (bispecific antibody) heavy: not shown light: DIVLTQSPASLAVSLGQRATISCRASESVDSYGQSYMHWYQQKAGQPPKLLIYLASNLESGVPARFSGSGSRTDFTLTIDPVQAEDAATYYCQQNAEDSRTFGGGTKLEIKASTKGPSDIQMTQSPASLSVSVGDTITLTCHASQNIDVWLSWFQQKPGNIPKLLIYKASNLHTGVPSRFSGSGSGTGFTLTISSLQPEDIATYYCQQAHSYPFTFGGGTKLEIKTVAAPRTVAAPSVFIFPPSDEQLKSGTASVVCLLNNFYPREAKVQWKVDNALQSGNSQESVTEQDSKDSTYSLSSTLTLSKADYEKHKVYACEVTHQGLSSPVTKSFNRGEC
– | – | 0.04 nM | 0.001 nM | CODV-Ig Batch ID 507 (IL4 × IL13 on HC; L1 GQPKAAP, L2 QPKAA, L3 S, L4 RT) (bispecific antibody) heavy: not shown light: DIVLTQSPASLAVSLGQRATISCRASESVDSYGQSYMHWYQQKAGQPPKLLIYLASNLESGVPARFSGSGSRTDFTLTIDPVQAEDAATYYCQQNAEDSRTFGGGTKLEIKGQPKAAPDIQMTQSPASLSVSVGDTITLTCHASQNIDVWLSWFQQKPGNIPKLLIYKASNLHTGVPSRFSGSGSGTGFTLTISSLQPEDIATYYCQQAHSYPFTFGGGTKLEIKQPKAARTVAAPSVFIFPPSDEQLKSGTASVVCLLNNFYPREAKVQWKVDNALQSGNSQESVTEQDSKDSTYSLSSTLTLSKADYEKHKVYACEVTHQGLSSPVTKSFNRGEC
– | – | 0.034 nM | 0.001 nM | CODV-Ig Batch ID 501 (IL4 × IL13 on HC; L1 ASTKGPS, L2 TKGPS, L3 S, L4 RT) (bispecific antibody) heavy: not shown light: DIVLTQSPASLAVSLGQRATISCRASESVDSYGQSYMHWYQQKAGQPPKLLIYLASNLESGVPARFSGSGSRTDFTLTIDPVQAEDAATYYCQQNAEDSRTFGGGTKLEIKASTKGPSDIQMTQSPASLSVSVGDTITLTCHASQNIDVWLSWFQQKPGNIPKLLIYKASNLHTGVPSRFSGSGSGTGFTLTISSLQPEDIATYYCQQAHSYPFTFGGGTKLEIKTKGPSRTVAAPSVFIFPPSDEQLKSGTASVVCLLNNFYPREAKVQWKVDNALQSGNSQESVTEQDSKDSTYSLSSTLTLSKADYEKHKVYACEVTHQGLSSPVTKSFNRGEC
– | – | 0.033 nM | 0.006 nM | CODV-Ig Batch ID 505 (IL4 × IL13 on HC; L1 GQPKAAP, L2 TKGPS, L3 S, L4 RT) (bispecific antibody) heavy: not shown light: DIVLTQSPASLAVSLGQRATISCRASESVDSYGQSYMHWYQQKAGQPPKLLIYLASNLESGVPARFSGSGSRTDFTLTIDPVQAEDAATYYCQQNAEDSRTFGGGTKLEIKGQPKAAPDIQMTQSPASLSVSVGDTITLTCHASQNIDVWLSWFQQKPGNIPKLLIYKASNLHTGVPSRFSGSGSGTGFTLTISSLQPEDIATYYCQQAHSYPFTFGGGTKLEIKTKGPSRTVAAPSVFIFPPSDEQLKSGTASVVCLLNNFYPREAKVQWKVDNALQSGNSQESVTEQDSKDSTYSLSSTLTLSKADYEKHKVYACEVTHQGLSSPVTKSFNRGEC
0.08 nM | 0.046 nM | – | – | CODV-Ig Batch ID 203 (IL4 × IL13 on HC; L1=7, L2=3, L3=1, L4=2) (bispecific antibody) chain 1: not shown chain 2: DIVLTQSPASLAVSLGQRATISCRASESVDSYGQSYMHWYQQKAGQPPKLLIYLASNLESGVPARFSGSGSRTDFTLTIDPVQAEDAATYYCQQNAEDSRTFGGGTKLEIKGGGGGGGDIQMTQSPASLSVSVGDTITLTCHASQNIDVWLSWFQQKPGNIPKLLIYKASNLHTGVPSRFSGSGSGTGFTLTISSLQPEDIATYYCQQAHSYPFTFGGGTKLEIKGGGRTVAAPSVFIFPPSDEQLKSGTASVVCLLNNFYPREAKVQWKVDNALQSGNSQESVTEQDSKDSTYSLSSTLTLSKADYEKHKVYACEVTHQGLSSPVTKSFNRGEC
0.0093 nM | 0.0672 nM | – | – | CODV-Ig Batch ID 238 (IL4 × IL13 on HC; L1=5, L2=5, L3=5, L4=2) (bispecific antibody) chain 1: not shown chain 2: DIVLTQSPASLAVSLGQRATISCRASESVDSYGQSYMHWYQQKAGQPPKLLIYLASNLESGVPARFSGSGSRTDFTLTIDPVQAEDAATYYCQQNAEDSRTFGGGTKLEIKGGGGGDIQMTQSPASLSVSVGDTITLTCHASQNIDVWLSWFQQKPGNIPKLLIYKASNLHTGVPSRFSGSGSGTGFTLTISSLQPEDIATYYCQQAHSYPFTFGGGTKLEIKGGGGGRTVAAPSVFIFPPSDEQLKSGTASVVCLLNNFYPREAKVQWKVDNALQSGNSQESVTEQDSKDSTYSLSSTLTLSKADYEKHKVYACEVTHQGLSSPVTKSFNRGEC
0.009 nM | 0.054 nM | – | – | CODV-Ig Batch ID 202 (IL4 × IL13 on HC; L1=5, L2=5, L3=1, L4=2) (bispecific antibody) chain 1: not shown chain 2: DIVLTQSPASLAVSLGQRATISCRASESVDSYGQSYMHWYQQKAGQPPKLLIYLASNLESGVPARFSGSGSRTDFTLTIDPVQAEDAATYYCQQNAEDSRTFGGGTKLEIKGGGGGDIQMTQSPASLSVSVGDTITLTCHASQNIDVWLSWFQQKPGNIPKLLIYKASNLHTGVPSRFSGSGSGTGFTLTISSLQPEDIATYYCQQAHSYPFTFGGGTKLEIKGGGGGRTVAAPSVFIFPPSDEQLKSGTASVVCLLNNFYPREAKVQWKVDNALQSGNSQESVTEQDSKDSTYSLSSTLTLSKADYEKHKVYACEVTHQGLSSPVTKSFNRGEC
